Laboratory results reported in the supplement of paper PMC12042874.
± gives the uncertainty stated by the source.

Test: amyloid nucleation score (Sup35N fusion, yeast selection) (log enrichment); library NNK1; higher = more nucleation; inactive = no reads after selection
Outline: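 In psi-negative yeast, Sup35N fusions carrying peptides of 20 random codons were induced with 100 μM copper sulfate for 24 hours. The cells then grew 7 days at 30°C on medium lacking adenine and uracil, and plasmid inserts from input and output were Illumina-sequenced, excluding sequences with under 100 input reads. Nucleation score is the DiMSum log enrichment of output over input reads, centred on the mode score of non-aggregating sequences.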
For PSLVQNGSQSTPVEDYIIEY, the amyloid nucleation score was -0.618 ± 0.65.
Substance VAEWRSMNVGVGRATIEGLS has an amyloid nucleation score of 0.579 ± 0.28.
With NRFFSRVKKYPYTLSYPGFC the amyloid nucleation score was 0.065 ± 0.29.
RYHPMG showed an amyloid nucleation score of -0.074 ± 0.93.
With CQYVFVCRHFFLGKNHEALE the amyloid nucleation score was -0.462 ± 0.86.
With FYPFLQR the amyloid nucleation score was 1.48 ± 0.63.
With DLYKSVPKHNQSNMSDSTES the amyloid nucleation score was -0.631 ± 0.6.
QIFLWFGISNKDFLHFVSWS gave an amyloid nucleation score of 0.158 ± 0.57.
For NHPTRPLTTQLGLAAQAKSG, the amyloid nucleation score was -0.153 ± 0.47.
For RFEGERRVVG, the amyloid nucleation score was -0.035 ± 0.3.
Work on MVGQYRYLSPYGW yielded an amyloid nucleation score of 0.724 ± 1.2.
RLYYLGMSGYLRHNPASCVL gave an amyloid nucleation score of -1.56 ± 2.7.
CNLIYCTFDYLNFWDYYTID showed an amyloid nucleation score of 6.64 ± 0.054.
For NNLFYEIRM, the amyloid nucleation score was 1.92 ± 0.17.
Work on ANKLCSVKQQTPRLRWYMGS yielded an amyloid nucleation score of 0.856 ± 0.48.
Work on IPDNVVF yielded an amyloid nucleation score of -1.27 ± 1.4.
Work on KLDGVVPDVYLSGRLPQAWL yielded an amyloid nucleation score of 0.205 ± 0.86.
For ILVLRGCIKLR, the amyloid nucleation score was “inactive”.
Work on YWCRSSLFRFMGLRYESRMY yielded an amyloid nucleation score of 0.359 ± 0.51.
In the case of DYGIVGAEVKKCLIL, the amyloid nucleation score is reported as 0.433 ± 0.44.
Substance YPNVRSTYGDHSLLSNVAKG has an amyloid nucleation score of 0.132 ± 0.66.
In the case of AKCGICLFYGM, the amyloid nucleation score is reported as -0.358 ± 0.36.
Work on CMILFTNRQRVMRLVLCLSD yielded an amyloid nucleation score of 0.044 ± 0.49.
Work on FCFGGNVGRYLMVRPCVFGY yielded an amyloid nucleation score of 0.035 ± 0.71.
CNLSNVSLLFRYELLISGSY gave an amyloid nucleation score of 0.748 ± 0.35.
Work on NREGCIMWHRRVLARRCLTS yielded an amyloid nucleation score of 0.145 ± 0.89.
For DSYCLRMPIGSCIDWWGKGV, the amyloid nucleation score was -0.058 ± 0.61.
In the case of PVSSLNYLVDT, the amyloid nucleation score is reported as 0.395 ± 0.62.
For YNLGQVFSWINDTTSMMCGK, the amyloid nucleation score was 0.567 ± 0.32.
For KGMLLCYFPNKCPAWEAKCG, the amyloid nucleation score was 5.17 ± 0.059.
SAKNTGYMWMLIWLG gave an amyloid nucleation score of 0.204 ± 0.79.
With FDANGVCSSITSCM the amyloid nucleation score was -0.359 ± 0.53.
YTQSWQ showed an amyloid nucleation score of -0.309 ± 0.51.
For NKAVKLQSDPMGALC, the amyloid nucleation score was 0.701 ± 0.54.
In the case of LNRFVPASRWDHLHL, the amyloid nucleation score is reported as -0.353 ± 1.7.
Work on FCRHLGLSS yielded an amyloid nucleation score of 1.25 ± 0.44.
With KRGNPMTHAFLWPVMSYVFR the amyloid nucleation score was 0.295 ± 0.97.
Substance WNQTSPRQCAVTMSANVTGN has an amyloid nucleation score of 0.575 ± 0.68.
For FTFNYIATVSQLPGFGVIHS, the amyloid nucleation score was 0.343 ± 0.7.
SNWLM showed an amyloid nucleation score of 2.06 ± 0.53.
In the case of PALNRFLGTERDYDRYAGIA, the amyloid nucleation score is reported as -0.8 ± 0.49.
For FSADVIFPCISSTLQKPPWW, the amyloid nucleation score was -0.081 ± 0.54.
In the case of SSQDYAHSIAGLVYGC, the amyloid nucleation score is reported as -0.137 ± 0.98.
GGSRTIVP showed an amyloid nucleation score of 0.411 ± 0.48.
Substance KLDCMVDDICGTSGTVFLCL has an amyloid nucleation score of 4.85 ± 0.061.
With YLKMFV the amyloid nucleation score was 0.01 ± 0.32.
In the case of WLVTDFVCHLITNTIYTLLL, the amyloid nucleation score is reported as “inactive”.
In the case of IGITRILFVFFIDTATIKNG, the amyloid nucleation score is reported as -0.855 ± 0.43.
Work on FVLVMLNMQ yielded an amyloid nucleation score of 4.4 ± 0.093.
NNRIRRGGSVSVVMTVCDMD showed an amyloid nucleation score of 1.81 ± 0.34.
Substance WRESSWLCMWERNVKVDWGR has an amyloid nucleation score of -0.87 ± 1.7.
With VYYIVFPTTLSVDKFFPIWC the amyloid nucleation score was 2.26 ± 0.18.
With YNMVYQCLIRCVAILFNLGR the amyloid nucleation score was -0.321 ± 0.65.
Substance VTLSLMCWNFALRFVSLGRS has an amyloid nucleation score of 4.02 ± 0.071.
Work on TGATFMMRGVNLCEGSKSGN yielded an amyloid nucleation score of -0.198 ± 0.5.
LVDWVYGWGVVVFAMSQGSE gave an amyloid nucleation score of 0.125 ± 1.4.
DYSYCKVNPLNSVLSVLVLL showed an amyloid nucleation score of -0.34 ± 0.29.
TCAGDNHDCDIYRNLLVAFS showed an amyloid nucleation score of 1.19 ± 0.68.
For FKLAIVSIFCINSWYNESLR, the amyloid nucleation score was 5.866 ± 0.049.
Work on NFCVSVVFP yielded an amyloid nucleation score of 1.84 ± 0.54.
SSVVL showed an amyloid nucleation score of 0.531 ± 0.44.
NLTRHVDVANPAPRLPHLGV showed an amyloid nucleation score of -0.146 ± 0.46.
Work on VVFSWRIDSFGREEKGA yielded an amyloid nucleation score of 0.349 ± 0.81.
For NNIVLDFLFGVSLHRFGPHH, the amyloid nucleation score was 4.43 ± 0.14.
Work on DAYVLD yielded an amyloid nucleation score of 0.314 ± 0.34.
SVSACPRVPMCIYGYLCWCH showed an amyloid nucleation score of -0.311 ± 0.3.
Work on IVTEVGGVVDEYARWPVGMT yielded an amyloid nucleation score of 8.737 ± 0.05.
In the case of DALWKVFKDWLGGADQRGFP, the amyloid nucleation score is reported as 0.29 ± 0.78.
In the case of FFHSAYCFCNNLPMGLDLWS, the amyloid nucleation score is reported as 5.81 ± 0.083.
Work on MPGNQYCSVSYLYQRSSGTV yielded an amyloid nucleation score of 0.384 ± 0.45.
Work on LFHQLRITSVLSYDDKCEAR yielded an amyloid nucleation score of 0.41 ± 0.2.
With YNYICTDSWILSTMVDFVHL the amyloid nucleation score was -0.442 ± 0.92.
Work on NAFSYTGRYIGLPRELGVLR yielded an amyloid nucleation score of 1.06 ± 0.52.
Substance SRRWNNDLGLFSRERKTTLV has an amyloid nucleation score of -1.06 ± 1.7.
Substance PWTYQHGQLASWVLGES has an amyloid nucleation score of -0.242 ± 0.33.
Work on CRYSACAKRMSSFCRVRMCL yielded an amyloid nucleation score of 0.194 ± 0.66.
Work on KEYGVSL yielded an amyloid nucleation score of -0.93 ± 0.55.
HLPGFNIVSYVQSESIMF gave an amyloid nucleation score of -0.08 ± 0.2.
For NVDWSPKRNINMGGWEKWLV, the amyloid nucleation score was 0.261 ± 0.92.
ASRFDCEDIFGRTCGYVHYF showed an amyloid nucleation score of -0.113 ± 0.79.
For WNYSHEV, the amyloid nucleation score was “inactive”.
With FSWCGWQRRSSVVAGSRILW the amyloid nucleation score was -0.118 ± 1.1.
With AIVYRQKLISQLYFARLLRH the amyloid nucleation score was 0.063 ± 1.4.
For IMVVFGITCVPASGNFLQGW, the amyloid nucleation score was “inactive”.
For CGDKNILTRIWLERVSVLAS, the amyloid nucleation score was 0.056 ± 0.33.
ACNCHMWV showed an amyloid nucleation score of 1.31 ± 0.59.
